Measurements as given in US10918741B2, “PSMA-targeting imaging agents” (THE CLEVELAND CLINIC FOUNDATION, priority 2014, dated 2021).
Entries after “also recorded” stand apart in the source; their conditions may differ. Primed or numbered codes have the meaning given here. Where no end group is shown, it is not given here. [ ]: non-standard residue; d: D form. Amc = N-aminomethyl cyclohexanoic acid; Ahx = NCCCCCC(=O)O; E′E = Glu-urea-Glu

Legend:
[1] = system: PC3-PIP tumors; design: species or system mice; details: mouse, in vivo
Experimental: (§1) Male NOD scid gamma (NSG) mice bearing PC3-PIP (PSMA+) and PC3-flu (PSMA−) tumor xenographs were used for imaging. The mice were injected with 3 mCi of [^99mTc]3. Four hours after tracer injection, SPECT/CT images were acquired using a high-resolution multi-pinhole SPECT with collimation insert with a clinical SPECT/CT scanner (Symbia T6, Siemens Molecular Imaging). DiFilippo, F. P. Phys Med Biol 53(15): 4185-4201 (2008). For the biodistribution study without imaging, male NSG mice bearing two PC3-PIP tumors were injected with 50-100 µCi of [^99mTc]3. Mice were sacrificed at 2 hours, 4 hours and 6 hours after injection. After thoracotomy, blood was first withdrawn from the heart, then the organs were resected en-block. The activities were counted with a Perkin Elmer 2480 Automatic Gamma Counter. The decay corrected percent injected dose per gram of organ weight (wet) (% ID/g) was calculated.

[2] = system: PC3-PIP (PSMA+) and PC3-flu (PSMA−) tumor xenographs; assay: SPECT/CT imaging of [^99mTc]3; format: in vivo, mice; details: 4 hours after tail vein injection
Experimental: as §1

[3] = format: physicochemical
Experimental: Labeling with technetium typically yields 95% radiochemical purity after SepPak purification. […] The kidneys and bladder are the most prominent organs on the images, because PSMA is expressed naturally in mouse kidneys and because it is a renally excreted compound. […] Tumor uptake is 6.0±1.6% at 2 hours, 6.0±2.2% at 4 hours and 5.7%±2.5% at 6 hours (Table 2). […] This is likely related to residual pertechnetate after cartridge purification and dissociation of technetium from the chelate.

[4] = hematological, biochemistry, and histopathological analyses; cited from earlier work
[5] = cited from earlier work

Compound | radioactivity in the stomach [1] | radioactivity in the thyroid [1] | SPECT/CT imaging result in words [2] | stability under solvent conditions for HPLC [3] | toxicity in words [4] | water solubility in words [5]
^99mTc-E′EAmc-Ahx-dEdEdEGYGGGC ({E′E-Amc}-[Ahx][dE][dE][dE]GYGGGC; not fully specified (C-terminus); also: 99mTc chelated (N3S1)) [[^99mTc]3, Tc99m labeled compound 3] | 0.2 % ID/g | 0.3 % ID/g | specific targeting of PSMA+PC3-PIP tumors with no significant binding to PC3-flu tumors; also recorded: near background tracer uptake in the PSMA negative tumors, liver, lung, heart and spleen | not stable |  | 
CC1(C)C(=CC=C2CCCC(C=CC3=[N+](CCCCCC(=O)[O-])c4ccc(S(=O)(=O)[O-])cc4C3(C)C)=C2Oc2ccc(S(=O)(=O)[O-])cc2)N(CCCCS(=O)(=O)[O-])c2ccc(S(=O)(=O)[O-])cc21.[Na+].[Na+].[Na+].[Na+] [IRDye 800CW] |  |  |  |  | no pathologic evidence of toxicity | highly water soluble
